The target in the test is human VLA-1 (alpha 1/beta 1, CD49a/CD29) on IL-2 stimulated human PBMC / T cells (human) (UniProt P56199). Description: cell-based or functional assay.

For the substance Hu IgG4 (antibody), the % adhesion of IL-2 activated T cells to collagen IV vs no antibody, 10 µg/ml, +PMA came to 109%; the % adhesion of IL-2 activated T cells to collagen IV vs no antibody, 10 µg/ml, -PMA worked out at 106%; the % adhesion of T cells to collagen IV vs no antibody, 5 nM mAb, 10 ng/ml PMA worked out at 95.6%; the % adhesion of T cells to collagen IV vs no antibody, 5 nM mAb, no PMA stood at 9.5%.

The values above are taken from patent US20060286112A1.
